Measurements as given in the nanobody polyreactivity screen of Harvey et al. (2022).

Test: yeast display, Sf9 membrane polyspecificity reagent, FACS + sequencing; frameworks hold sequencing errors
Procedure, shortened: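 Using colony PCR, genes from sorted yeast display clones were amplified, then sequenced on MiSeq at 2 × 250 and filtered by CDR length. The clones had been stained with 10% biotinylated, detergent-solubilized Sf9 membrane reagent for 1 hour at 4 °C and sorted by FACS into low and high (top ~1%) gates on anti-HA and streptavidin fluorescence. Polyreactivity labels come from the gate of origin.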

| Sequence | polyreactivity (PSR sort gate) |
| --- | --- |
| QVQLVESGGGLVQAGGSLRLSCAASGSIFQYYVMGWYRQAPGKERELVAAISQSGGRTYYADSVKGRFTISRDNAKNTVYLQMNSLKPVDTAVFYCAADSRNAEYDYWGQGTQVTVSS | high polyreactivity |
| QVQLVESGGGLVQAGGSLRLSCAASGSIFRANALGWYRPAPGKERELVAAISASGGRTYYADSVKGRFTISRDNAKNTVYLQMNSLKPEDTAVYYCNAYYGYLYHYTYDYWGQGTQVTVSS | high polyreactivity |
| QVQLVESGGGLVQAGGSLRLSCAASGSIFRAYAMGGYRQAPGKERELVAAINWTDGSTYYAASVKGRFTISRDYAKNTVYLQMNSLKPEDTAVYYCAKDSMARHNYWGQGTQVTVSS | low polyreactivity |
| QVQLVESGGGLVQAGGSLRLSCAASGSIFRAYAMGWYRQAPGKERELVAAINWTDGSTYYADSVKGRFTISRDNAKNTVYLQMNSLKPEDTAVYYCAKDSIARHNYWGQGTQVTVSS | low polyreactivity |
| QVQLVESGGGLVQAGGSLRLSCAASGSIFRAYAMGWYRQAPGKERELVATISWSGTSTSYADSVKGRFTISRDNAKNTVYLQMNSLKPEDTAVYYCAAGYASGPRPQTAYYYWGQGTQVTVSS | low polyreactivity |
| QVQLVESGGGLVQAGGSLRLSCAASGSIFRDNAMGWYRQAPGKERELVAAITDSGGRTYYADSVKGRFTISRDNAKNTVYLQMNSLKPEDTAVYYCAAGQSGYAGRRPAFGYWGQGTQVTVSS | low polyreactivity |
| QVQLVESGGGLVQAGGSLRLSCAASGSIFRDNVMGWYRQAPGKERELVAAISKRGGSTYYADSVKGRFTISRDNAKNTVYLQMNSLKPEDTAVYYCAAPQGRSHYYRYDYWGQGTQVTVSS | high polyreactivity |
| QVQLVESGGGLVQAGGSLRLSCAASGSIFRDYAMGWYRQAPGKEMELVAAISSDGSTYYADSVKGRFTISRDNAKNTVYLQMNSLKPEDTAVYYCNAAHVAHRFIGYTRWNYYYWGQGTQVTVSS | high polyreactivity |
| QVQLVESGGGLVQAGGSLRLSCAASGSIFRDYAMGWYRQAPGKERELVAAITWSGGRTYYADSVKGRFTISRDNAKNTVYLQMNSLKPEDTAVYYCAARSTRQYEYDYWGQGTQVTVSS | low polyreactivity |
| QVQLVESGGGLVQAGGSLRLSCAASGSIFRFYAMGWYRQAPGKERELVAAITRRGGRTYYADSVKGRFTISRDNAKNTVYLQMNSLIPEDTAVYYCAAASKKPPSFEYNYWGQGTQLTVSS | high polyreactivity |
| QVQLVESGGGLVQAGGSLRLSCAASGSIFRFYAMGWYRQAPGKERELVATISKRGGTTYYADSVKGRFTISRDNAKNTVYLQMNSLKPEDTAVYYCAVRLYLEMDYWGQGTPVTVSS | high polyreactivity |
| QVQLVESGGGLVQAGGSLRLSCAASGSIFRFYAMGWYRQAPGTERELVAAISSSGSSTYYADSVKGRFTISRDNAMNTVYLQMNSLKPEDTAVYYCNARLGWSRAWSMDSWGQGTQVTVSS | high polyreactivity |
| QVQLVESGGGLVQAGGSLRLSCAASGSIFRFYTMGWYRQAPGKERELVAAIRYRVTSTYYADSVKGRFTMSRDNAKNTVYLQMNSLTPEDTAVYYCAVRRAKRRSQGVSYASYAGNYNYWGLGTQVTVSS | high polyreactivity |
| QVQLVESGGGLVQAGGSLRLSCAASGSIFRGKAMGWYRQAPGKERELVAAITRSGGRTYYADSVKGRFTISRDNAKNTVYLQMNSLKPDDTAVYYCAAEYYTGLGYWGQGTQVTVSS | high polyreactivity |
| QVQLVESGGGLVQAGGSLRLSCAASGSIFRGNAMGWSRQAPAKERELVAAISKSGGSTYYADSVKGRFTISRDNAKNTVYLQMNSLKPEDTAVYYCAARTTYLYGMYYWGQGTQVTVSS | low polyreactivity |
| QVQLVESGGGLVQAGGSLRLSCAASGSIFRGNAMGWYRQAPGKERELVASISYSGGSTYYADSVKGRFTISRDNAKNTVYLQMNSLKPEDTAVYYCAADESVAYPYSGYQYYRHIYDYWGQGTQVTVSS | low polyreactivity |
| QVQLVESGGGLVQAGGSLRLSCAASGSIFRGNGMGWYTQAPGKERELVAAISRSGGRTYYADSVKGRFTISRDNAKNTVYLQMISLNPEDTAVYSCNAARSYQYDYWGQGTQVTVSS | high polyreactivity |
